US20190106460A1, “BINDING INHIBITORS OF THE BETA. TRANSDUCIN REPEAT-CONTAINING PROTEIN” (priority 2011, published 2019)
Starred links: 1 amine or outer side, 2 acyl side, 3 side chain; linkers in the order of their positions; H or OH if unused. Suc = O=C(CCC(=O)[*:2])[*:1]

Key:
[1] = target: βTrCP (tag cleaved and complexed with Skp1) (UniProt Q9Y297); experiment: FP competition vs fluorescein-IκB peptide
[2] = target: HisβTrCP/Skp1 and HisβTrCP/GSTSkp1 (immobilised on NTA Biacore chip) (UniProt Q9Y297); experiment: SPR, Biacore T200, βTrCP/Skp1 immobilised
[3] = target: βTrCP (tag cleaved and complexed with Skp1) (UniProt Q9Y297); experiment: FP competition vs fluorescein-IκB peptide; Table 7: peptide selected from the arrays of Tables 5 and 6, re-synthesised; FP assay
[4] = target: βTrCP (tag cleaved and complexed with Skp1) (UniProt Q9Y297); experiment: FP competition, 10 nM fluorescein-IκB peptide on βTrCP/Skp1
[5] = target: βTrCP (tag cleaved and complexed with Skp1) (UniProt Q9Y297); experiment: FP competition vs fluorescein-IκB peptide; remark: listed apart in the source

Sequence of βTrCP (tag cleaved and complexed with Skp1) (Q9Y297 175-605, chain 1 of 2): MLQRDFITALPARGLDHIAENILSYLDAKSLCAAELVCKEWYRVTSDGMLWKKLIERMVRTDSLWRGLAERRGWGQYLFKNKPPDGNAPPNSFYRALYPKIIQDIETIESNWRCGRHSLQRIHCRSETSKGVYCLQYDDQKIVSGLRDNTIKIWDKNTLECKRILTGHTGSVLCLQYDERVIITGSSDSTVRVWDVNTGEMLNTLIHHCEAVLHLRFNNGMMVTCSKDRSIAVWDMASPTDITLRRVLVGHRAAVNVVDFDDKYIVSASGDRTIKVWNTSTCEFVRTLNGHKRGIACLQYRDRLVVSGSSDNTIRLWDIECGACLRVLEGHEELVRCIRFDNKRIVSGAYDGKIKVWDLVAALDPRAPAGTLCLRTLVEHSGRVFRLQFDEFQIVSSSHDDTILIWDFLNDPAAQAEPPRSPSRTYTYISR
Sequence of βTrCP (tag cleaved and complexed with Skp1) (P63208 whole entry, chain 2 of 2, further chain): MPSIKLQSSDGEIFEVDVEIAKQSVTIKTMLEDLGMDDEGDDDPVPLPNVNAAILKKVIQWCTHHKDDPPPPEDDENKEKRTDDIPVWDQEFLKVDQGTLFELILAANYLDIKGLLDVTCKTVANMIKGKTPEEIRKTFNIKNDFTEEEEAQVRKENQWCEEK
Sequence of HisβTrCP/Skp1 and HisβTrCP/GSTSkp1 (immobilised on NTA Biacore chip) (Q9Y297 175-605, chain 1 of 2): as the sequence (Q9Y297 175-605, chain 1 of 2) above
Sequence of HisβTrCP/Skp1 and HisβTrCP/GSTSkp1 (immobilised on NTA Biacore chip) (P63208 whole entry, chain 2 of 2, further chain): as the sequence (P63208 whole entry, chain 2 of 2, further chain) above

## Suc-EGYF(4NO2)E-NH2 (peptide)
[1]
  IC50: 2070 nM
[2]
  Kd: 17700 nM

## EAFFE-NH2 (peptide)
[3]
  IC50: 28000 nM

## Suc-QGF(3F)F(4NO2)E-NH2 (peptide)
[1]
  IC50: 2560 nM
[2]
  Kd: 5490 nM

## Mal-EGF(3F)F(4NO2)E-NH2 (peptide)
[1]
  IC50: 2170 nM
[2]
  Kd: 1460 nM

## E-pS-GIFE-NH2 (peptide)
[4]
  IC50: 34500 nM

## Suc-EG-F(3F)-3Pal-NH2 (peptide)
[5]
  IC50: 70000 nM

## Suc-AGYFE-NH2
[1]
  IC50: 22200 nM

## Suc-AG-F(3F)-F(4NO2)-E-NH2 (peptide)
[1]
  IC50: 8010 nM

## Suc-QGYFE-NH2
[1]
  IC50: 10700 nM

## Suc-EGF(3F)F(4NO2)E-NH2 (peptide)
[5]
  IC50: 520 nM
[1]
  IC50: 522 nM
[2]
  Kd: 4530 nM

## Suc-EG-F(3F)-1Nal-Q-NH2 (peptide)
[1]
  IC50: 7220 nM

## Suc-EGF(2F)Y(Me)E-NH2 (peptide)
[5]
  IC50: 3200 nM
[1]
  IC50: 3280 nM
[2]
  Kd: 4400 nM

## Suc-EG-F(4NO2)-1Nal-NH2 (peptide)
[5]
  IC50: 14000 nM

## Suc-EGF(3F)HE-NH2 (peptide)
[1]
  IC50: 521 nM
[2]
  Kd: 400 nM

## Suc-EGF(4F)F(4NO2)E-NH2 (peptide)
[5]
  IC50: 1200 nM
[1]
  IC50: 1210 nM
[2]
  Kd: 507 nM

## Suc-EG-3Pal-1Nal-E-NH2 (peptide)
[1]
  IC50: 3630 nM

## Suc-EGY1NalE-NH2 (peptide)
[1]
  IC50: 1150 nM
[2]
  Kd: 1490 nM

## (MeO)Suc-EG-F(3F)-1Nal-E-NH2 (peptide)
[1]
  IC50: 1600 nM

## Suc-EGF(3F)WE-NH2 (peptide)
[1]
  IC50: 95 nM
[2]
  Kd: 455 nM

## Suc-EAYFE-NH2 (peptide)
[1]
  IC50: 82100 nM

## D-pS-GIFE-NH2 (peptide)
[4]
  IC50: 1240 nM

## Suc-EGI-1Nal-E-NH2 (peptide)
[1]
  IC50: 15100 nM

## Suc-EGF(4NO2)1NalE-NH2 (peptide)
[1]
  IC50: 1310 nM
[2]
  Kd: 1960 nM

## DpSGIFE-NH2 (peptide)
[1]
  IC50: 1240 nM
[2]
  Kd: 1480 nM

## Suc-EG-F(3F)-Y(Me)-E-NH2 (peptide)
[1]
  IC50: 1400 nM

## Suc-EGF(3F)1NalE-NH2 (peptide)
[1]
  IC50: 157 nM
[2]
  Kd: 320 nM

## Suc-EGF(2F)F(4NO2)E-NH2 (peptide)
[5]
  IC50: 4900 nM
[1]
  IC50: 4910 nM
[2]
  Kd: 8000 nM

## Suc-EA-F(3F)-F(4NO2)-E-NH2 (peptide)
[1]
  IC50: 27500 nM

## Fum-EG-F(3F)-F(4NO2)-E-NH2 (peptide)
[1]
  IC50: 60400 nM

## Suc-QGFFE-NH2
[1]
  IC50: 10000 nM

## Suc-EAFFE-NH2 (peptide)
[1]
  IC50: 59800 nM
